Degree of inhibition of infection of 293 cells with AdLacZ by recombinant Ad5 knob data for one substance are collected here from patent publication US20040038205A1.

This experiment concerns the target natural cellular receptor for the adenoviral fiber on 293 cells (human (293 human line)) (UniProt P78310). The experiment can be described thus: cell-based or functional assay.
Chain of UniProt P78310 (P78310 20-365): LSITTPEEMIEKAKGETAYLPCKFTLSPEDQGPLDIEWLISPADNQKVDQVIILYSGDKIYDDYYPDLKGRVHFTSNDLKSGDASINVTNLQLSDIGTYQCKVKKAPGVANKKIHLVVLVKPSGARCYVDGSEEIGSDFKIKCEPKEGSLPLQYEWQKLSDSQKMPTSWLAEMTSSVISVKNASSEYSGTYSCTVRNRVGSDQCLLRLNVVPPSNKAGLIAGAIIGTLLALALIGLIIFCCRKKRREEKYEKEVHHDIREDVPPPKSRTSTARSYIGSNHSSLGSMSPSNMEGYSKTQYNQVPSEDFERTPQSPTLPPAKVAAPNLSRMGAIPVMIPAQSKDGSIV

On to “native Ad5 fiber carried by the recombinant virus AdLacZ (from UniProt P11818 1-581)”, for which the degree of inhibition of infection of 293 cells with AdLacZ by recombinant Ad5 knob at 100 µg/ml (LacZ-positive cells) turned out to be 95%.
